{
  "source": "patent US20240148841A1",
  "target": "human IgG (of human serum; IgG against AAV8 in AAV8 positive human serum pools CP16 and P1) (human)",
  "assay": "cell-based or functional assay",
  "data": [
    {"binder": "Xork1.3-Fc-HD-H435R (Fc fusion) MTLWADGVQVDDKDFKPSTENFGTNYLAAEYGIGKGYYDINKKFDGTDDDLCSGVVAANQLHWWLDRNKDYIEKYRQQSKDNGVTIGNTDIFELNKLHDEDQSNFFDFIKKSFGNKFLQPERLLNMYINGYGYLTSQDKAKTSQPSPSKLNFFQKVFKNNLLTDKTPINDIDEFSSQTKNALQNHKVLAVSFASIKNRGLGHVVTVWGADFDENGKVVALYVTDSDDRSKNIGNAKLGMKKLRIEVSAQDSSTIKLTGFEDKNSGGSLRHLYSLSTGEQIWKKYFEETEPKSSDKTHTCPPCPAPELLSSPSVFLFPPKPKDTLMISRTPEVTCVVVDVSHEDPEVKFNWYVDGVEVHNAKTKPREEQYNSTYRVVSVLTVLHQDWLNGKEYKCKVSNKALPAPIEKTISKAKGQPREPQVYTLPPSRDELTKNQVSLTCLVKGFYPSDIAVEWESNGQPENNYKTTPPVLDSDGSFFLYSKLTVDKSRWQQGNVFSCSVMHEALHNRYTQKSLSLSPG", "values": [
      {"measurement": "SEAP levels in passively immunized mice (% lower than in non-immunized controls)", "value": 20}
    ]}
  ]
}
